Test results published in patent WO2021028752A1 (dated 2021).

Target: recombinant human TNFa (human, UniProt P01375 77-233, 125I label (only in the receptor inhibition assay))
Assay: cell-based or functional assay

recombinant human TNFa, sequence (P01375 77-233 limits assumed): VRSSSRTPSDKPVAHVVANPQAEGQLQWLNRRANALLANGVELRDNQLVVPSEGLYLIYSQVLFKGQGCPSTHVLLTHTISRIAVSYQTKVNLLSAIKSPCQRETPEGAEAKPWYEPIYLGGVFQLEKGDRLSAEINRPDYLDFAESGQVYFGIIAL

- neutralizing TNFa bioactivity: 4 fold
B1: TNV196 (antibody, V domains shown)
VH: QVQLVESGGGVVQPGRSLRLSCAASGFTFSSYAMHWVRQAPGKGLEWVAFISYDGSNKKSADSVKGRFTVSRDNSKNTLFLQMNSLRAEDTAVFYCARDRGIGAGGNYYYYGMDVWGQGTTVTVSS
VL: EIVLTQSPATLSLSPGERATLSCRASQSVYSYLAWYQQKPGQAPRLLIYDASNRATGIPARFSGSGSGTDFTLTISSLEPEDFAVYYCQQRSNWPPFTFGPGTKVDIK
